These results are taken from patent publication US20160257755A1 (TRACON PHARMACEUTICALS, published 2016).

Where a chain is given by its changes, count along the chain named.

What is called IC50 is the concentration needed to halve the response being measured. The term EC50 denotes the concentration at which the effect is half-maximal. Low values mean higher potency in that assay, high ones lower potency in that assay. For orientation: Kd means the constant that tells how readily two partners part at equilibrium. The term koff denotes the rate constant with which the complex falls apart. Broadly, the kon is the second-order rate constant of association.

The target in assay [1] is T1, human CD105 (endoglin), R&D Systems Cat. No. 1097-EN (human, UniProt P17813 26-586).
T1 construct: Bought protein, captured on the plate by mouse anti-human CD105 (Southern Biotechnologies 9811-01); also called human endoglin
T1 sequence (looked up): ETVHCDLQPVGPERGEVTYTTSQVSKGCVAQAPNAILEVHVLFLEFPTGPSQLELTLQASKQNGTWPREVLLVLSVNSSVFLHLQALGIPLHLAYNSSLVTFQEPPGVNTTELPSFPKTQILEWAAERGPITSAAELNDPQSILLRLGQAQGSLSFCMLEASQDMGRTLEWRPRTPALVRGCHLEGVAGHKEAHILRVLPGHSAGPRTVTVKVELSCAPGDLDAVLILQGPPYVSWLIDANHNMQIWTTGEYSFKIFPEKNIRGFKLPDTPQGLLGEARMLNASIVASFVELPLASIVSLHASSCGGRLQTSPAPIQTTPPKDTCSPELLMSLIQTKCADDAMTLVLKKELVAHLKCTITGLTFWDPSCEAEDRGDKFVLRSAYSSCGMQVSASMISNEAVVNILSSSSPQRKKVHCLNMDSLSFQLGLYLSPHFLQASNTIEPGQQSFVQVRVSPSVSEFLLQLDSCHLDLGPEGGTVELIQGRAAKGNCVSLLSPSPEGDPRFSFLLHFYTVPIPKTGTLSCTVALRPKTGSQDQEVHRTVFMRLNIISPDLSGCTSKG
The assay is described as follows: competition ELISA on captured human CD105, unlabelled TRC205 against biotinylated TRC205 (55 ng/ml); unlabelled TRC205 as competitor, in nM. As to the method: (§1) OD450 nm values were measured on a Dynex MRX TCII plate reader.
(ELISA stands for enzyme-linked immunosorbent assay.)

The target in assay [2] is T1, human CD105 (endoglin), R&D Systems …. Kind of assay: direct ELISA, biotinylated TRC205 on human CD105 captured by anti-CD105, streptavidin-HRP detection. As for the experimental part: as §1
The target in assay [3] is T2, recombinant endoglin (BIAcore analyte, Example 2) (UniProt P17813 26-586, limits assumed).
T2 sequence (looked up): T1 sequence (looked up)
The assay is described as follows: SPR (BIAcore), antibody captured on protein A, recombinant endoglin as analyte. As to the method: Affinity of antibodies can be assessed using, for example, BIAcore analysis using standard protocols. Briefly, protein A is chemically coupled to a BIAcore CM5 chip, with the amount of protein A immobilized corresponding to 2000 RU. Subsequent steps are performed in a running buffer of 10 mM HEPES, 150 mM NaCl, 3 mM EDTA, 0.05% TWEEN, pH=7.4, at 25 degrees Celsius using a 10 Hz data collection rate. […] Start-up cycles are performed using running buffer at a flow rate of 40 μL/min, a contact time of 90 seconds and a dissociation time of 90 seconds. Sample cycles are performed using recombinant endoglin at concentrations ranging from 0 to 40 nM. Endoglin is passed over the BIAcore chip containing captured antibody at a flow rate of 40 μL/min with a contact time of 525 seconds and dissociation time of 2500 seconds. […] Regeneration of the chip is accomplished using 10 mM glycine pH=1.7. Data analysis is performed using BIAcore T100 Evaluation Software v1.1 Signals generated using BIAcore chips with different captured antibody densities are compared and data generated in the absence of recombinant endoglin are used to adjust for the intraassay blank signal. For fitting of the data, the Rₘₐₓ is allowed to float to account for variation in capture levels of each antibody in each cycle. Data from each capture density is fitted simultaneously during analysis of each antibody.
On the technique in general: In SPR one partner is held on a chip, and binding of the other changes the refractive index at the surface.

Assay [4] concerns the target T1, human CD105 (endoglin), R&D Systems …. The assay is described as follows: competition ELISA on captured human CD105 against biotinylated chimeric anti-CD105 (6.25 ng/ml); streptavidin-HRP/TMB, absorbance at 450 nm. As to the method: FIGS. 6A-6F. Anti-CD105 competition ELISA with humanized and humanized/deimmunized antibodies. […] Binding was detected via streptavidin-HRP and TMB substrate. Absorbance (OD) at 450 nm was measured on a plate reader and this was plotted against the test antibody concentration.
as §1

The target of assay [5] is T3, mouse endoglin, R&D Systems Cat. No. 1320-EN-025 (mouse, UniProt Q63961 27-581).
T3 construct: Coated directly on the plate at 1 ug/ml; also called murine endoglin
T3 sequence (looked up): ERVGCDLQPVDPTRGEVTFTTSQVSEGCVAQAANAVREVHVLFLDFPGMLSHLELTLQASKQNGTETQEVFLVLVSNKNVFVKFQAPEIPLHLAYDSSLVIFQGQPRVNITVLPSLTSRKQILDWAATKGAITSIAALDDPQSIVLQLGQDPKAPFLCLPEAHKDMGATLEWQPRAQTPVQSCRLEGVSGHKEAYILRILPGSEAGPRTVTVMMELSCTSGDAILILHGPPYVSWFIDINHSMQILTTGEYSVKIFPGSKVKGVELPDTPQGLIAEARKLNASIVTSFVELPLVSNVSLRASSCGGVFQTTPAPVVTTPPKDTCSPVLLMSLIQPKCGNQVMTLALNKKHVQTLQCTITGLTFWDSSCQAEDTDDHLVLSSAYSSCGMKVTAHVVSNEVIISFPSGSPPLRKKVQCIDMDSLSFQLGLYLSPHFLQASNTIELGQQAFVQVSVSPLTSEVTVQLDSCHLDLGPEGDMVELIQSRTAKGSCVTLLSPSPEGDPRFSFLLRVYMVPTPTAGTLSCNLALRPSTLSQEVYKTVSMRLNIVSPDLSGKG
Kind of assay: direct ELISA on coated mouse endoglin, anti-rat IgG peroxidase detection. As for the experimental part:
The following day the plate was washed three times with PBST before blocking with PBST/3% Marvel at room temperature for 1 hour. […] Binding of the antibodies was detected via anti-rat IgG peroxidase (Sigma, Cat. No. A9037) and TMB single solution substrate (Invitrogen, Cat. No. 00-2023). The reaction was stopped by adding 3 M HCl and OD450 nm values were measured on a Dynex MRX TCII plate reader.

In assay [6] the target is T3, mouse endoglin, R&D Systems Cat. No. …. The assay is described as follows: competition ELISA on coated mouse endoglin, competitor biotinylated M1043 (40 ng/ml). As for the experimental part: Nunc Immuno MaxiSorp 96 well flat bottom plates (Fisher Cat. No. DIS-971-030J) were coated with mouse endoglin (R&D Systems, Cat. No. 1320-EN-025) at 1μg/ml in PBS overnight at 4° C. The following day the plate was washed three times with PBST before blocking with PBST/3% Marvel at room temperature for 1 hour. […] Binding of the biotinylated antibody was detected via streptavidin-HRP (Sigma, Cat. No. 55512) and TMB substrate (Sigma, Cat. No. T0440). OD450 nm values were measured on a Dynex MRX TCII plate reader.

In assay [7] the target is T1, human CD105 (endoglin), R&D Systems …. Kind of assay: competition ELISA on captured human CD105, human BMP9 against biotinylated TRC205 (55 ng/ml); human BMP9 as competitor, in nM. As to the method:
as §1

B1: TRC205 antibody (antibody, IgG4, V domains shown)
VH: EVQLVESGGGLVKPGGSLRLSCAASGFTFSDAWMDWVRQAPGKGLEWVGEARSKASNHATYYAESVKGRFTISRDDSKNTLYLQMNSLKTEDTAVYYCTRWRRFFDSWGQGTLVTVSS
VL: DIQMTQSPSSLSASVGDRATITCRASSSVSYMHWYQQKPGKAPKPWAYATSNLASGVPSRFSGSGSGTDYTLTISSLQPEDFATYYCQQWSSNPLTFGGGTKVEIK
notes: Humanized and deimmunized IgG4; also called biotinylated TRC205; unlabelled TRC205
In turn, B1 yielded an IC50 in assay [1] of 1700 pM. Besides, a half-maximal effect in assay [2] (EC50) was put at 0.046 µg/mL.

B2: humanized/deimmunized anti-endoglin antibody VK1AAVH1R (antibody, human IgG1, V domains shown)
VH: B1 VH with A51I, K54R
VL: B1 VL
On to B2, for which, in assay [3], the Kd was 533 pM, the off-rate constant (koff) was 3.41e-05 s⁻¹ and the kon is 64000 M⁻¹ s⁻¹.

B3: VK2SAVH1S (antibody, V domains shown)
VH: B1 VH with G49S, A51I
VL: B1 VL with M4L, A19V, T22S
notes: humanized/deimmunized anti-endoglin antibody variant
Take B3: the binding result in assay [4] is recorded as “binds”.

B4: VK2SSVH1S (antibody, V domains shown)
VH: B1 VH with G49S, A51I
VL: B1 VL with M4L, A19V, T22S, A47I, T50S
notes: as for B3
Regarding B4, in assay [4], the binding result is listed as “binds”.

B5: VK2SSVH1Q (antibody, V domains shown)
VH: B1 VH with A51I, K54Q
VL: B1 VL with M4L, A19V, T22S, A47I, T50S
notes: as for B3
For the molecule B5, the binding result in assay [4] was “binds”.

B6: humanized/deimmunized anti-endoglin antibody VK1AAVH1A2 (antibody, V domains shown)
VH: B1 VH
VL: B1 VL
notes: It has the same variable domains as TRC205, which is IgG4
For B6, in assay [3], the Kd amounted to 706 pM, the koff came out at 3.25e-05 s⁻¹ and the kon was 46000 M⁻¹ s⁻¹.

B7: humanized/deimmunized anti-endoglin antibody VK1AAVH1Q (antibody, human IgG1, V domains shown)
VH: B1 VH with A51I, K54Q
VL: B1 VL
For B7, in assay [3], the Kd was 850 pM, the koff is 3.03e-05 s⁻¹ and the kon was 35600 M⁻¹ s⁻¹.

B8: M1043 antibody (antibody, rat IgG1, V domains shown)
VH: QVQLQQSGAELVKPGSSVKISCKASGYTFTSYDMHWIKQQPGNGLEWIGWIYPGNGNTKYNQKFNGKATLTADKSSSTAYMQLSSLTSEDSAVYFCARGKFGVGDYWGQGVMVTVSS
VL: DTVLTQSPALAVSPGERVSISCRASEGVNSYMHWYQQKPGQQPKLLIYIASNLASGVPARFSGSGSGTDFTLTIDPVEADDTATYFCQQSWNDPYTFGAGTKLELKR
notes: also called Antibody M1043; biotinylated M1043
As to B8, in assay [5], the binding result was “binds”.

B9: chimeric anti-endoglin antibody (TRC105) (antibody, V domains shown)
VH: EVKLEESGGGLVQPGGSMKLSCAASGFTFSDAWMDWVRQSPEKGLEWVAEIRSKASNHATYYAESVKGRFTISRDDSKSSVYLQMNSLRAEDTGIYYCTRWRRFFDSWGQGTTLTVSS
VL: QIVLSQSPAILSASPGEKVTMTCRASSSVSYMHWYQQKPGSSPKPWIYATSNLASGVPVRFSGSGSGTSYSLTISRVEAEDAATYYCQQWSSNPLTFGAGTKLELK
notes: also called chimeric anti-CD105; c-SN6j
Consider B9, for which, in assay [3], the dissociation constant Kd was found to be 600 pM, the koff turned out to be 3.28e-05 s⁻¹ and the kon was determined as 54700 M⁻¹ s⁻¹.

B10: mouse BMP9 (R&D Systems, Cat. No. 5566-BP-010) (ligand, UniProt Q9WV56 319-428, looked up)
chain: STGASSHCQKTSLRVNFEDIGWDSWIIAPKEYDAYECKGGCFFPLADDVTPTKHAIVQTLVHLKFPTKVGKACCVPTKLSPISILYKDDMGVPTLKYHYEGMSVAECGCR
With B10, the binding result in assay [6] is recorded as “binds”.

B11: human BMP9 (R&D Systems Cat. No. 3209-BP-010) (ligand, UniProt Q9UK05 320-429, looked up)
chain: B10 chain with T2A, S5G, D33E, I84V
As for B11, the IC50 in assay [7] was found to be 14600 pM.
